Test system: MS2 coat protein
Assay: apparent KD of MS2 coat protein; designed switch direction (-1 OFF switch, 1 ON switch): -1; higher = weaker reporter binding
How it was run: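 Designed RNA switches with common flanks were transcribed on Illumina chips by stalled E. coli RNA polymerase and titrated with SNAP-549-labelled MS2 coat protein, from 0.7 or 1.5 nM doubling to 3 µM, in Tris-HCl pH 7.5 buffer with KCl, MgCl2, BSA, DTT, tRNA and Tween-20. Steps lasted 0.8–1.5 h (lowest) to 10–20 min (highest). Titrations ran without input, with 200 uM small-molecule ligand, or with an oligonucleotide input. Normalised cluster fluorescence was curve-fitted, and apparent KD is the per-design median over clusters.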

[1] = Eterna round: R95, input ligand: FMN 200 uM
[2] = Eterna round: R95, input ligand: microRNA oligo, concentration not stated
[3] = Eterna round: R95, input ligand: none
[4] = input ligand: microRNA oligo, concentration not stated

Sequence | apparent KD of MS2 coat protein [1] | apparent KD of MS2 coat protein [2] | apparent KD of MS2 coat protein [3] | apparent KD of MS2 coat protein (input ligand: FMN 200 uM) | apparent KD of MS2 coat protein (input ligand: none) | apparent KD of MS2 coat protein [4]
CUGAGGUAGCGGUCCUAUGACAUGAGGAUCACCCAUGUACCUUGCUACGAGCUUUUUGCUCGUCUUAUAAUUCUCAG [Mat - Sensor v3 - turn-off var 1 - JL Mod - D31] (puzzle: Sensor v3, turn-off variant 1) | 151 nM | 96.5 nM | 247 nM | – | – | –
CUGAGUUUAGGAUAUACAUGAGGAUCACCCAUGUAAAGUAGCUUGCGUACAGGCAGAUGUAGAAGGAAAUUCGG [Mod of JL 7 - Jieux - Exclusion 3] (Eterna round: R97, puzzle: Exclusion 3) | – | – | – | 31.5 nM | 41.8 nM | –
CUGAUGUGAGGAUAUCUAAAAGAAACUGGGCAAAUACCCAGAGAGAAGGCACAUGAGGAUCACCCAUGUAACGA [Anedin] (puzzle: Exclusion 4) | – | 20.9 nM | – | – | – | –
CUGCUGGAGCGGCGCUUUGGUCGUACAUGAGGAUCACCCAUGUAGGAUAUGGUAAAAUUUGCCUGCUAGAAGGAUAGAGUGGUC [salish99_ExNG3_r04_616] (Eterna round: R96, puzzle: Exclusion NG 3) | – | – | – | 124 nM | 91.6 nM | 70 nM
CUGCUGGAGCGGCGCUUUGGUCGUACAUGAGGAUCACCCAUGUAGGAUAUGGUAAAAUUUGCUUGCUAGAAGGAUAGAGUGGUC [salish99_ExNG3_r04_615] (Eterna round: R96, puzzle: Exclusion NG 3) | – | – | – | 140 nM | 80.3 nM | 64.5 nM
CUGGUCCGAGGAUAUAUUAAGUGAAACAUGAGGAUCACCCAUGUUAUUUGAUGGAUGUAAAUAGAAGGCGGACUAG [JL-ex5-3.13] (puzzle: Exclusion 5) | 23.8 nM | 33.1 nM | 49.1 nM | – | – | –
CUGGUCCGAGGAUAUAUUAAGUGAUACAUGAGGAUCACCCAUGUUAUUUAAUGGAUAUUAAUAGAAGGCGGACUAG [Mat - Exclusion 5 - JL mod - D77] (puzzle: Exclusion 5) | 34.1 nM | 28.4 nM | 25.5 nM | – | – | –
CUGGUCCGAGGAUAUAUUAUGUGAAACAUGAGGAUCACCCAUGUAAUAUGAUGGAAAUAAAUAGAAGGCGGACUAG [Mat - Exclusion 5 - JL mod - D32] (puzzle: Exclusion 5) | 26 nM | 34.5 nM | 43.5 nM | – | – | –
CUGUAAAGGAAGGAUAUGCUAGACGAAAGUCUAGCAGAAGGUCCUACAUGAGGAUCACCCAUGUGGCCUCACAG [Mat - Exclusion 6 - Eli Mod - D50] (Eterna round: R97, puzzle: Exclusion 6) | – | – | – | 1500 nM | 274 nM | –
CUGUACUGAGGAUAUACAUGAGGAUCACCCAUGUGUCCCAGCUAGGAAACUAGCAAAGGUAGAAGGCAGUACAG [Mat - Exclusion 3 - Eli Mod - D57] (Eterna round: R97, puzzle: Exclusion 3) | – | – | – | 302 nM | 22.6 nM | –
CUGUACUGAGGAUAUACAUGAGGAUCACCCAUGUGUUCCAGCUAGGAAACUAGCAAAAGUAGAAGGCAGUACAG [Mat - Exclusion 3 - Eli Mod - D65] (Eterna round: R97, puzzle: Exclusion 3) | – | – | – | 332 nM | 30.5 nM | –
CUUAAAAGGAAGGAUAUGCUAGACGAAAGUCUAGCAGAAGGUCCUACAUGAGGAUCACCCAUGUGUCCUAUAAG [Mat - Exclusion 6 - Eli Mod - D13] (Eterna round: R97, puzzle: Exclusion 6) | – | – | – | 72.4 nM | 81.1 nM | –
CUUAGACAUGAGGAUCACCCAUGUGAGGAUAUGAUGCGGGAGACGAAAAGUUUCAGCAUCAGAAGGCACAUAUG [mod of disincluded 3 v.3 (my top score 87 - 34% A's)] (puzzle: Exclusion 1) | 349 nM | 175 nM | 172 nM | – | – | –
CUUAGCCUAAAAUCACGCAAGCCUUUUGCUUGUCUUAAGACAUGAGGAUCACCCAUGUCCGGGCUGAACUUAUGGAA [Geanon] (puzzle: Sensor v3, turn-off variant 2) | 17.4 nM | 33.3 nM | 16.6 nM | – | – | –
CUUAGUUGGUAAGGAUAUCCUACAUUAUUCUGACCCGUGCAAGCUACAUGAGGAUCACCCAUGUGGGAGAAGGUGCGUUAAUGU [Design 6] (Eterna round: R96, puzzle: Exclusion NG 2) | – | – | – | 18.4 nM | 20.1 nM | 12.9 nM
CUUCACCCACCAGAGCACACCCACAUACCUGCUCAGGUGACAUGAGGAUCACCCAUGUUUUUUGCCCGUCUUAUCUU [Tilevere] (puzzle: Sensor v3, turn-off variant 2) | 31.6 nM | 144 nM | 33.9 nM | – | – | –
CUUCACCCACCAGAGCUCACCCACAAACCUGCCCUGGUGACAUGAGGAUCACCCAUGUUUUUUGCCCGUCUUAUCUU [Diletibi] (puzzle: Sensor v3, turn-off variant 2) | 42 nM | 241 nM | 46.8 nM | – | – | –
CUUCACCCACCUGAGCUCACCCACAUACCUGCUCAGGUGACAUGAGGAUCACCCAUGUUUUUUGCCCGUCUUAUCUU [Soteonge] (puzzle: Sensor v3, turn-off variant 2) | 39.4 nM | 229 nM | 45.6 nM | – | – | –

Sequence | apparent KD of MS2 coat protein [1] | apparent KD of MS2 coat protein [2] | apparent KD of MS2 coat protein [3] | apparent KD of MS2 coat protein (input ligand: FMN 200 uM) | apparent KD of MS2 coat protein (input ligand: none) | apparent KD of MS2 coat protein [4]
CUUCAGUAAGGAUAUCAGCUUAGGAGGUUGGUAAUGAGAGCUGAGAAGGUACAUGAGGAUCACCCAUGUUAGUU [JL Zatite mod 8] (puzzle: Exclusion 4) | – | 17 nM | – | – | – | –
CUUCGGGCAGGAUAUGCUGUUUGUGACAUGAGGAUCACCCAUGUGAUGCAGUUUGGGUGUGCAGAAGGGCCUGAGU [JR_E5_Sub031] (puzzle: Exclusion 5) | – | 43.7 nM | – | – | – | –
CUUGACUGAGGAUAUACGAGAUCGAAAGAUCGGCGAUCCCUACAUGAGGAUCACCCAUGUAGAAGGCAGUCAAG [Mod 14 - Jieux - Exclusion 2] (Eterna round: R97, puzzle: Exclusion 2) | – | – | – | 70.6 nM | 17 nM | –
CUUGCACGACGAGGAUAUCGUAAACAUGAGGAUCACCCAUGUAGGUGGCGUCGUCCUCUAUCUUGCGAGAAGGCGUAAAAUUAA [Begeeda] (Eterna round: R96, puzzle: Exclusion NG 2) | – | – | – | 82.6 nM | 39.4 nM | 47.1 nM
CUUGUGUUAGGAUAUGUUAAGCCGCCACCUGGCGGAUCAGGACAGAAGGAACAUGAGGAUCACCCAUGUAAAAG [Inenxele] (Eterna round: R97, puzzle: Exclusion 4) | – | – | – | 55.1 nM | 105 nM | –
CUUGUUUAUGUAGGAUAUGCCUGGCGUGCCUUUGCAGAAGGACAUGAGGAUCACCCAUGUAUUGCGGUCUGCGUUCAGAUCGCG [salish99_ExNG1_r4_043] (Eterna round: R96, puzzle: Exclusion NG 1) | – | – | – | 39 nM | 34.9 nM | 25.8 nM
CUUUACAAGCUAAGAUCCUACAUGAGGAUCACCCAUGUGGUCCGGUGACGUGAGUCACCGGACUUAGCUCGUCUUGA [salish99_S_TOV1_R5_093] (Eterna round: R97, puzzle: Sensor, turn-off variant 1) | – | – | – | 32 nM | 39.1 nM | –
CUUUAGUGAGGAUAUCAGUAGUAAUACAAUAGUAUUAUUACUGAGAAGGCACAUGAGGAUCACCCAUGUUCCUC [Mat - Exclusion 4 - Mod of Omei - D81] (puzzle: Exclusion 4) | – | 26.9 nM | – | – | – | –
CUUUCGUGAGGAUAUCAGUAGUAAUAAAAUAAAAUUACUACUGAGAAGGCACAUGAGGAUCACCCAUGUUCCUC [salish99_ex3_r3_098] (puzzle: Exclusion 4) | – | 23.5 nM | – | – | – | –
CUUUCGUGAGGAUAUGUGGCUUCGAAAAUGAGAUCGAGGCUACAGAAGGCACAUGAGGAUCACCCAUGUUCCUC [salish99_ex4_r4_215] (Eterna round: R97, puzzle: Exclusion 4) | – | – | – | 400 nM | 35.6 nM | –
CUUUGCACGCUGCGGUCCUACAUGAGGAUCACCCAUGUGGUCUGGUGGCGUGGGUCGCCGGACUUGGCUCGUCUUGG [salish99_S_TOV1_R5_042] (Eterna round: R97, puzzle: Sensor, turn-off variant 1) | – | – | – | 15.1 nM | 15.7 nM | –
CUUUUGUGAGGAUAUCAGUAGUAAAUUAAUAAAAUUACUACUGAGAAGGCACAUGAGGAUCACCCAUGUUCCUU [Mat - Exclusion 4 - Mod of Salish - D64] (puzzle: Exclusion 4) | – | 14.9 nM | – | – | – | –
CUUUUGUGAGGAUAUCAGUAGUAGAACAAUAGUACUACUACUGAGAAGGCACAUGAGGAUCACCCAUGUUCUUC [Fiskers Ex 4 Super stable 44 mod 5] (puzzle: Exclusion 4) | – | 27.8 nM | – | – | – | –
CUUUUGUGAGGAUAUCAGUAGUAUAUAAAUAAAAUUACUACUGAGAAGGCACAUGAGGAUCACCCAUGUUCCUC [salish99_ex3_r3_076] (puzzle: Exclusion 4) | – | 35.5 nM | – | – | – | –
CUUUUGUGAGGAUAUGGUCUCGAUGACAUGAGGAUCACCCAUGUAACAUGGGACUUGUGACUAGAAGGCACUAACG [JR_Ex5_Sub024] (Eterna round: R97, puzzle: Exclusion 5) | – | – | – | 22.6 nM | 16.4 nM | –
CUUUUGUGAGGAUAUUAGUAGUAAAUAAAUAAAAUUACUACUGAGAAGGCACAUGAGGAUCACCCAUGUUCCUU [salish99_ex4_r3_067] (puzzle: Exclusion 4) | – | 14 nM | – | – | – | –
CUUUUGUGAGGAUAUUAGUAGUAAAUAAAUAAAAUUACUACUGAGAAGGUACAUGAGGAUCACCCAUGUUCCUC [salish99_ex4_r3_044] (puzzle: Exclusion 4) | – | 15.8 nM | – | – | – | –

From the supplement of paper PMC9170038
